20 molecules from article PMC8287928 can be followed below.

For series [1], the target named is SARS-CoV-2 spike S1 subunit (SARS-CoV-2 (wild type), UniProt P0DTC2 16-685). The conditions noted are these: protein: commercial; tags: His.
Series [2] deals with HCoV-229E RBD (HCoV-229E, UniProt P15423 293-435). The experiment in a line: dot blot (filter binding); 50 nM protein. The conditions noted are these: protein: recombinant; tags: C-terminal His; hairpin.
Series [3] concerns the target SARS-CoV-2 spike S1 subunit (SARS-CoV-2 (wild type), UniProt P0DTC2 16-685). The conditions noted are these: protein: commercial; tags: His. The source holds these as a separate data set.
The target in series [4] is Human alpha-thrombin (human, UniProt P00734;P00734 315-363;364-622).
In series [5] the target is SARS-CoV-2 spike RBD (SARS-CoV-2, UniProt P0DTC2 319-541). The conditions noted are these: protein: commercial.
In series [6] the target is SARS-CoV-1 RBD (SARS-CoV-1, UniProt P59594 306-527). The conditions noted are these: protein: recombinant; tags: C-terminal His; label: 5'-32P; hairpin.
Series [7] deals with SARS-CoV-1 full spike protein (SARS-CoV-1, UniProt P59594 14-1195). Conditions: protein: commercial; chain copies: 3; label: 5'-32P; hairpin.
For series [8], the target named is MERS-CoV RBD (MERS-CoV, UniProt K9N5Q8 367-588). The conditions noted are these: protein: recombinant; tags: C-terminal His; label: 5'-32P; hairpin.
Chain of MERS-CoV RBD (K9N5Q8 367-588): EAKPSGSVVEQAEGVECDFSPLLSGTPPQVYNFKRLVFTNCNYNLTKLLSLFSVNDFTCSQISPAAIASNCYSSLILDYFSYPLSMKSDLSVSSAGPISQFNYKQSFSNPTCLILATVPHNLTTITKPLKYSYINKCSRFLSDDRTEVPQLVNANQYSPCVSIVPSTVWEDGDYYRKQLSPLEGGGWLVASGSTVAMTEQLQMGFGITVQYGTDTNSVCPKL

Chain of HCoV-229E RBD (P15423 293-435): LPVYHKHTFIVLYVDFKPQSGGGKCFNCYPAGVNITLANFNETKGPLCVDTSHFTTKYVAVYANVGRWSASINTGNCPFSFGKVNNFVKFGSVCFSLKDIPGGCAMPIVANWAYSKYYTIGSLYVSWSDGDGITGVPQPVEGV

B1: MSA4 (structured_DNA)
DNA: TTACGTCAAGGTGTCACTCCTGTGGGCGGGGGCGGTTGATTGTATTACTGTCGGGAGGGGGAAGCATCTCTTTGGCGTG
Usually Kd stands for the free concentration of one partner at which half of the binding sites on the other are occupied at equilibrium, for simple one-to-one binding. Take B1: in series [1], binding was put at a Kd of 27.6 ± 0.6 nM.

B2: MSA2 (structured_DNA)
DNA: TTACGTCAAGGTGTCACTCCTCAGTGGGAGGGGGTCCATGTCTTGTCGGGGTCGGGGGTGGAAGCATCTCTTTGGCGTG
In series [1], B2 registered a dissociation constant (Kd) of 9.2 ± 0.2 nM.

B3: MSA5-T7 (structured_DNA)
DNA: TCCACGGCGTCGGGCCTGGCGGGGGGATAGTGCGGTGGA
In the case of B3, the equilibrium dissociation constant (Kd) in series [1] amounted to 22.8 nM.

B4: MSA8 (structured_DNA)
DNA: TTACGTCAAGGTGTCACTCCATGTGGGTGGGGGTCATTCTTCAGTGTCGGGAGGGGGTGGAAGCATCTCTTTGGCGTG
On to B4, for which binding in series [1] was characterised by a dissociation constant (Kd) of 23 ± 1 nM.

B5: MSA3-T2 (structured_DNA)
DNA: ACAGCGTCTGGTTGGTTTGGTTGGATCTTCGATCGCTGT
As to B5, the Kd in series [1] stood at 1.9 nM.

B6: MSA5-T6 (structured_DNA)
DNA: TCCACGGGTTTGCTGGCGGGGGGATAGTGCGGTGGA
B6 yielded a Kd in series [1] of 264 nM.

B7: MSA5-T1 (structured_DNA)
DNA: TCCACGGGTTTGGCGTCGGGCCTGGCGGGGGGATAGTGCGGTGGA
Regarding B7, in series [1], binding was characterised by a dissociation constant (Kd) of 8.4 nM.

B8: MSA1-T3 (structured_DNA)
DNA: TCCGGTTAATTTATGCTCTACCCGTCCACCTACCGGA
In turn, B8 showed a Kd in series [1] of 3.1 nM.

B9: MSA1 (structured_DNA)
DNA: TTACGTCAAGGTGTCACTCCCACTTTCCGGTTAATTTATGCTCTACCCGTCCACCTACCGGAAGCATCTCTTTGGCGTG
For B9, the binding result in series [2] and in series [4] was “no binding” throughout. The Kd in series [3] is 1.8 ± 0.4 nM.

B10: MSA5-T2 (structured_DNA)
DNA: ACGGGTTTGGCGTCGGGCCTGGCGGGGGGATAGTGCGGT
Take B10: the equilibrium dissociation constant (Kd) in series [1] was determined as 10.1 nM.

B11: MSA3 (structured_DNA)
DNA: TTACGTCAAGGTGTCACTCCTACAGCGTCTGGTTGGTTTGGTTGGATCTTCGATCGCTGTGAAGCATCTCTTTGGCGTG
In series [1], B11 gave a Kd of 1.9 ± 0.1 nM.

B12: MSA1-T2 (structured_DNA)
DNA: TTCCGGTTAATTTATGCTCTACCCGTCCACCTACCGGAA
As to B12, the binding result in series [1] was “binds”.

B13: MSA7 (structured_DNA)
DNA: TTACGTCAAGGTGTCACTCCTGGCTGTGGGGTTCGGGGTCACTATTTGTCGGGAGGGGAGGAAGCATCTCTTTGGCGTG
For B13, the Kd in series [1] amounted to 76.2 ± 10.5 nM.

B14: MSA10 (structured_DNA)
DNA: TTACGTCAAGGTGTCACTCCGCGGGTTTGGCTCCGGGCCTGGCGTTGCGGTCTGCTCCCCGAAGCATCTCTTTGGCGTG
Turning to B14, in series [1], binding was put at a Kd of 134 ± 21.3 nM.

B15: MSA9 (structured_DNA)
DNA: TTACGTCAAGGTGTCACTCCTTCGTGTGGGTGGGGTCCTAACTTTCCTGTCGGGGTCGGGGAAGCATCTCTTTGGCGTG
With B15, the affinity in series [1], expressed as Kd, was 37.4 ± 1.6 nM.

B16: MSA5 (structured_DNA)
DNA: TTACGTCAAGGTGTCACTCCACGGGTTTGGCGTCGGGCCTGGCGGGGGGATAGTGCGGTGGAAGCATCTCTTTGGCGTG
With B16, the binding result in series [2], in series [4], in series [6], in series [7] and in series [8] was “no binding” throughout. For the same molecule, the dissociation constant (Kd) in series [5] was 4 ± 0.6 nM; in series [1], 2.7 ± 0.2 nM.

B17: MSA6 (structured_DNA)
DNA: TTACGTCAAGGTGTCACTCCTCGGGGGGGTTTGGCACTGGGCCTGGCAGTACCGGGTCGCGAAGCATCTCTTTGGCGTG
In series [1], B17 gave a dissociation constant Kd of 16.2 ± 2.3 nM.

B18: MSA1-T4 (structured_DNA)
DNA: CCGGTTAATTTATGCTCTACCCGTCCACCTACCGG
Take B18: the “fold Kd increase” value in series [1] was 36 fold Kd increase vs MSA1-T3.

B19: MSA5-T3 (structured_DNA)
DNA: CTCCACGGGTTTGGCGTCGGGCCTGGCGGGGGGATAGTGCGGTGGAG
In series [1], B19 came in with a Kd of 7.3 nM.

B20: MSA5-T4 (structured_DNA)
DNA: CTTCCACGGGTTTGGCGTCGGGCCTGGCGGGGGGATAGTGCGGTGGAAG
In series [1], B20 showed a Kd of 6.3 nM.
